Publication PMC10840093
Like-named read-outs stand apart in the source and are kept apart here.

Measured: degradation_or_half_life

LSD1: LSD1-3KR (K424, K432, K481)
decreases: ubiquitination at K424 | ubiquitination at K432 | ubiquitination at K481
